Test results published in US20110263827A1 (AbbVie / Abbott, published 2011).

Legend:
DLL-4 = target: T1, DLL-4 (UniProt Q9NR61 27-524, limits assumed, biotinylated); assay: direct bind ELISA, C-term VD;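 further: ELISA with antibody or DVD-Ig preparations applied to target antigen-coated plates for 1 h at room temperature, TMB colour development, absorbance read at 450 nm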
T1 construct: ELISA antigen

EGFR [1] = target: T2, EGFR (UniProt P00533 25-645, limits assumed, biotinylated); assay: direct bind ELISA, N-term VD;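 further: antibody or DVD-Ig preparations bound to immobilized target antigen on ELISA plates, 1 h at room temperature, TMB detection read as absorbance at 450 nm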
T2 construct: ELISA antigen; construct not described

EGFR [2] = target: T2, EGFR; assay: direct bind ELISA, C-term VD;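 further: ELISA with antibody or DVD-Ig preparations applied to target antigen-coated plates for 1 h at room temperature, TMB colour development, absorbance read at 450 nm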
HGF = target: T3, HGF (UniProt P14210 32-728, limits assumed, biotinylated); assay: direct bind ELISA, N-term VD;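 further: antibody or DVD-Ig preparations bound to immobilized target antigen on ELISA plates, 1 h at room temperature, TMB detection read as absorbance at 450 nm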
T3 construct: ELISA antigen

EC50 (DLL-4) | EC50 (EGFR [1]) | EC50 (EGFR [2]) | EC50 (HGF) | Binder
0.42 nM | 4.19 nM |  |  | DVD781 (bispecific antibody, DVD-Ig; HC L, LC L; variable parts only) VH: QVQLQESGPGLVKPSQTLSLTCTVSGYSISSDFAWNWIRQPPGKGLEWMGYISYSGNTRYQPSLKSRITISRDTSKNQFFLKLNSVTAADTATYYCVTAGRGFPYWGQGTLVTVSSASTKGPSVFPLAPEVQLVESGGGLVQPGGSLRLSCAASGFTFTDNWISWVRQAPGKGLEWVGYISPNSGFTYYADSVKGRFTISADTSKNTAYLQMNSLRAEDTAVYYCARDNFGGYFDYWGQGTLVTVSS VL: DIQMTQSPSSMSVSVGDRVTITCHSSQDINSNIGWLQQKPGKSFKGLIYHGTNLDDGVPSRFSGSGSGTDYTLTISSLQPEDFATYYCVQYAQFPWTFGGGTKLEIKRTVAAPSVFIFPPDIQMTQSPSSLSASVGDRVTITCRASQDVSTAVAWYQQKPGKAPKLLIYSASFLYSGVPSRFSGSGSGTDFTLTISSLQPEDFATTYYCQQSYTGTVTFGQGTKVEIKR
 |  | 332 nM | 0.15 nM | DVD336 (bispecific antibody, DVD-Ig; HC S, LC S; variable parts only) VH: QVQLVESGGGLVKPGGSLRLSCAASGFTFSDYYMSWIRQAPGKGLEWVSYISSSGSTIYYADSVKGRFTISRDNAKNSLYLQMNSLRAEDTAVYYCARDEYNSGWYVLFDYWGQGTLVTVSSASTKGPQVQLQESGPGLVKPSQTLSLTCTVSGYSISSDFAWNWIRQPPGKGLEWMGYISYSGNTRYQPSLKSRITISRDTSKNQFFLKLNSVTAADTATYYCVTAGRGFPYWGQGTLVTVSS VL: DIQMTQSPSSVSASVGDRVTITCRASQGISSWLAWYQQKPGKAPNLLIYEASSLQSGVPSRFGGSGSGTDFTLTISSLQPEDFATYYCQQANGFPWTFGQGTKVEIKRTVAAPDIQMTQSPSSMSVSVGDRVTITCHSSQDINSNIGWLQQKPGKSFKGLIYHGTNLDDGVPSRFSGSGSGTDYTLTISSLQPEDFATYYCVQYAQFPWTFGGGTKLEIKR
4.01 nM | 5.1 nM |  |  | DVD339 (bispecific antibody, DVD-Ig; HC S, LC S; variable parts only) VH: QVQLQESGPGLVKPSQTLSLTCTVSGYSISSDFAWNWIRQPPGKGLEWMGYISYSGNTRYQPSLKSRITISRDTSKNQFFLKLNSVTAADTATYYCVTAGRGFPYWGQGTLVTVSSASTKGPEVQLVESGGGLVQPGGSLRLSCAASGFTFTDNWISWVRQAPGKGLEWVGYISPNSGFTYYADSVKGRFTISADTSKNTAYLQMNSLRAEDTAVYYCARDNFGGYFDYWGQGTLVTVSS VL: DIQMTQSPSSMSVSVGDRVTITCHSSQDINSNIGWLQQKPGKSFKGLIYHGTNLDDGVPSRFSGSGSGTDYTLTISSLQPEDFATYYCVQYAQFPWTFGGGTKLEIKRTVAAPDIQMTQSPSSLSASVGDRVTITCRASQDVSTAVAWYQQKPGKAPKLLIYSASFLYSGVPSRFSGSGSGTDFTLTISSLQPEDFATTYYCQQSYTGTVTFGQGTKVEIKR
 |  | 57.7 nM | 0.19 nM | DVD838 (bispecific antibody, DVD-Ig; HC S, LC L; variable parts only) VH: QVQLVESGGGLVKPGGSLRLSCAASGFTFSDYYMSWIRQAPGKGLEWVSYISSSGSTIYYADSVKGRFTISRDNAKNSLYLQMNSLRAEDTAVYYCARDEYNSGWYVLFDYWGQGTLVTVSSASTKGPQVQLQESGPGLVKPSQTLSLTCTVSGYSISSDFAWNWIRQPPGKGLEWMGYISYSGNTRYQPSLKSRITISRDTSKNQFFLKLNSVTAADTATYYCVTAGRGFPYWGQGTLVTVSS VL: DIQMTQSPSSVSASVGDRVTITCRASQGISSWLAWYQQKPGKAPNLLIYEASSLQSGVPSRFGGSGSGTDFTLTISSLQPEDFATYYCQQANGFPWTFGQGTKVEIKRTVAAPSVFIFPPDIQMTQSPSSMSVSVGDRVTITCHSSQDINSNIGWLQQKPGKSFKGLIYHGTNLDDGVPSRFSGSGSGTDYTLTISSLQPEDFATYYCVQYAQFPWTFGGGTKLEIKR
 |  | 96.4 nM | 0.14 nM | DVD808 (bispecific antibody, DVD-Ig; HC L, LC S; variable parts only) VH: QVQLVESGGGLVKPGGSLRLSCAASGFTFSDYYMSWIRQAPGKGLEWVSYISSSGSTIYYADSVKGRFTISRDNAKNSLYLQMNSLRAEDTAVYYCARDEYNSGWYVLFDYWGQGTLVTVSSASTKGPSVFPLAPQVQLQESGPGLVKPSQTLSLTCTVSGYSISSDFAWNWIRQPPGKGLEWMGYISYSGNTRYQPSLKSRITISRDTSKNQFFLKLNSVTAADTATYYCVTAGRGFPYWGQGTLVTVSS VL: DIQMTQSPSSVSASVGDRVTITCRASQGISSWLAWYQQKPGKAPNLLIYEASSLQSGVPSRFGGSGSGTDFTLTISSLQPEDFATYYCQQANGFPWTFGQGTKVEIKRTVAAPDIQMTQSPSSMSVSVGDRVTITCHSSQDINSNIGWLQQKPGKSFKGLIYHGTNLDDGVPSRFSGSGSGTDYTLTISSLQPEDFATYYCVQYAQFPWTFGGGTKLEIKR

Continued, binder first:

Binder | EC50 (DLL-4) | EC50 (EGFR [1]) | EC50 (EGFR [2]) | EC50 (HGF)
DVD811 (bispecific antibody, DVD-Ig; HC L, LC S; variable parts only) VH: QVQLQESGPGLVKPSQTLSLTCTVSGYSISSDFAWNWIRQPPGKGLEWMGYISYSGNTRYQPSLKSRITISRDTSKNQFFLKLNSVTAADTATYYCVTAGRGFPYWGQGTLVTVSSASTKGPSVFPLAPEVQLVESGGGLVQPGGSLRLSCAASGFTFTDNWISWVRQAPGKGLEWVGYISPNSGFTYYADSVKGRFTISADTSKNTAYLQMNSLRAEDTAVYYCARDNFGGYFDYWGQGTLVTVSS VL: DIQMTQSPSSMSVSVGDRVTITCHSSQDINSNIGWLQQKPGKSFKGLIYHGTNLDDGVPSRFSGSGSGTDYTLTISSLQPEDFATYYCVQYAQFPWTFGGGTKLEIKRTVAAPDIQMTQSPSSLSASVGDRVTITCRASQDVSTAVAWYQQKPGKAPKLLIYSASFLYSGVPSRFSGSGSGTDFTLTISSLQPEDFATTYYCQQSYTGTVTFGQGTKVEIKR | 0.99 nM | 3.45 nM |  | 
DVD841 (bispecific antibody, DVD-Ig; HC S, LC L; variable parts only) VH: QVQLQESGPGLVKPSQTLSLTCTVSGYSISSDFAWNWIRQPPGKGLEWMGYISYSGNTRYQPSLKSRITISRDTSKNQFFLKLNSVTAADTATYYCVTAGRGFPYWGQGTLVTVSSASTKGPEVQLVESGGGLVQPGGSLRLSCAASGFTFTDNWISWVRQAPGKGLEWVGYISPNSGFTYYADSVKGRFTISADTSKNTAYLQMNSLRAEDTAVYYCARDNFGGYFDYWGQGTLVTVSS VL: DIQMTQSPSSMSVSVGDRVTITCHSSQDINSNIGWLQQKPGKSFKGLIYHGTNLDDGVPSRFSGSGSGTDYTLTISSLQPEDFATYYCVQYAQFPWTFGGGTKLEIKRTVAAPSVFIFPPDIQMTQSPSSLSASVGDRVTITCRASQDVSTAVAWYQQKPGKAPKLLIYSASFLYSGVPSRFSGSGSGTDFTLTISSLQPEDFATTYYCQQSYTGTVTFGQGTKVEIKR | 0.55 nM | 4.06 nM |  | 
DVD778 (bispecific antibody, DVD-Ig; HC L, LC L; variable parts only) VH: QVQLVESGGGLVKPGGSLRLSCAASGFTFSDYYMSWIRQAPGKGLEWVSYISSSGSTIYYADSVKGRFTISRDNAKNSLYLQMNSLRAEDTAVYYCARDEYNSGWYVLFDYWGQGTLVTVSSASTKGPSVFPLAPQVQLQESGPGLVKPSQTLSLTCTVSGYSISSDFAWNWIRQPPGKGLEWMGYISYSGNTRYQPSLKSRITISRDTSKNQFFLKLNSVTAADTATYYCVTAGRGFPYWGQGTLVTVSS VL: DIQMTQSPSSVSASVGDRVTITCRASQGISSWLAWYQQKPGKAPNLLIYEASSLQSGVPSRFGGSGSGTDFTLTISSLQPEDFATYYCQQANGFPWTFGQGTKVEIKRTVAAPSVFIFPPDIQMTQSPSSMSVSVGDRVTITCHSSQDINSNIGWLQQKPGKSFKGLIYHGTNLDDGVPSRFSGSGSGTDYTLTISSLQPEDFATYYCVQYAQFPWTFGGGTKLEIKR |  |  | 50.3 nM | 0.17 nM
